The chains are these.
B3: MacroGreen (Af1521-c007), Af1521 K35E,G42E,I144R,Y145R fused to GFP (other, Archaeoglobus fulgidus, UniProt O28751 1-192, looked up)
chain: MEVLFEAKVGDITLKLAQGDITQYPAKAIVNAANERLEHGGEVAYAIAKACAGDAGLYTEISKKAMREQFGRDYIDHGEVVVTPAMNLEERGIKYVFHTVGPICSGMWSEELKEKLYKAFLGPLEKAEEMGVESIAFPAVSAGRRGCDLEKVVETFLEAVKNFKGSAVKEVALVIYDRKSAEVALKVFERSL
notes: Archaeoglobus fulgidus macrodomain protein Af1521, full length, with K35E, G42E, I144R, Y145R; Synthetic codon-optimised cDNA in a pNIC28 derived vector; also called GFP-fusion quadruple mutant; source: E. coli BL21(DE3)T1R pRARE2, purified (IMAC, SEC); not shown: eGFP, C-terminal, kept

Assay [1] deals with B3. The assay is described as follows: SPR; MacroGreen covalently immobilised, auto-MARylated PARP10 catalytic domain flowed over; apparent KD from the kinetics of binding and unbinding. Particulars: both partners purified. Background: SPR reads the build-up and loss of mass on a sensor chip optically.
In assay [2] the target is T1, PARylated PARP1 (auto-modified catalytic domain construct) (UniProt P09874 662-1011, auto-poly-ADP-ribosylated (PARylated) predominantly on carboxylic acid side chains; sites not given).
T1 construct: PARP1 catalytic domain construct, PARP1 662-1011; also called PARP1 662-1011; source: auto-modified with 1 mM NAD+
T1 sequence (P09874 662-1011): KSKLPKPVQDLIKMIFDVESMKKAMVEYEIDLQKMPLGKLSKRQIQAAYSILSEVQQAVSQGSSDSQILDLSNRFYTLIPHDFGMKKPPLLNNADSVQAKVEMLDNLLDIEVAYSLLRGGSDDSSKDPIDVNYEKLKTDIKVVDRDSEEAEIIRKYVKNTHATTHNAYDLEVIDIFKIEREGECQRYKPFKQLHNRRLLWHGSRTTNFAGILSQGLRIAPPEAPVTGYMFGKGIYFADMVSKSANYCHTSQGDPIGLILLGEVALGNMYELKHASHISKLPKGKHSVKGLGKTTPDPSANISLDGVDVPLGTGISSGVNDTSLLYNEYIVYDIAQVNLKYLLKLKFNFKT
Nature of the assay: far-Western, overlay or dot blot; overlay in multiwell plates: MAR- or PARylated protein adsorbed to protein binding 96-well plates (MaxiSorp), blocked with 1% BSA, overlaid with the macrodomain-GFP fusion (1 µM in Fig. 2) in TBST pH 7.5 for 5 min at room temperature, washed, GFP fluorescence read. Conditions: both partners purified.

Here are results for three molecules from publication PMC8319303, “MacroGreen, a simple tool for detection of ADP-ribosylated proteins” (Communications Biology, 2021).

B1: auto-MARylated PARP10 catalytic domain (domain or fragment, UniProt Q53GL7 819-1007, looked up)
chain: NLERLAENTGEFQEVVRAFYDTLDAARSSIRVVRVERVSHPLLQQQYELYRERLLQRCERRPVEQVLYHGTTAPAVPDICAHGFNRSFCGRNATVYGKGVYFARRASLSVQDRYSPPNADGHKAVFVARVLTGDYGQGRRGLRAPPLRGPGHVLLRYDSAVDCICQPSIFVIFHDTQALPTHLITCEHV
modifications: auto-mono-ADP-ribosylated (MARylated) on glutamic and aspartic acid, serine, lysine and arginine side chains; sites not given
notes: PARP10 catalytic domain, construct PARP10 819-1007; also called PARP10 819-1007; source: auto-modified with NAD+
On to B1, for which, in assay [1], the Kd was 30 nM and the “stoichiometry N” value came out at 1.

B2: Af1521-c001, wild type Af1521 fused to GFP (other, Archaeoglobus fulgidus, UniProt O28751 1-192, looked up)
chain: MEVLFEAKVGDITLKLAQGDITQYPAKAIVNAANKRLEHGGGVAYAIAKACAGDAGLYTEISKKAMREQFGRDYIDHGEVVVTPAMNLEERGIKYVFHTVGPICSGMWSEELKEKLYKAFLGPLEKAEEMGVESIAFPAVSAGIYGCDLEKVVETFLEAVKNFKGSAVKEVALVIYDRKSAEVALKVFERSL
notes: Archaeoglobus fulgidus macrodomain protein Af1521, full length, wild type; pNIC28 derived vector; also called Af1521-GFP; wild type Af1521-GFP fusion; source: E. coli BL21(DE3)T1R pRARE2, purified (IMAC, SEC); not shown: eGFP, C-terminal, kept
Consider B2, for which the binding result in assay [2] is “binds”.

Consider B3, for which the binding result in assay [2] was “binds”.

In general, stoichiometry N refers to the number of molecules, sites or subunits per partner or assembly.
